# Source: patent publication US20210380702A1 (Regeneron, published 2021)
# Values joined by “and” are separate entries in the source; they are usually repeats but may differ in a detail not shown here. Equal entries are not always repeated.
# Experiments:
# [1] = target: T1, recombinant human PD-L1 (amino acids 19-239 of NP_054862.1) expressed with a C-terminal mouse IgG2a Fc tag (human); test: competition ELISA: 0.5 nM hPD-L1-mFc binding to coated hPD-1-hFc
# T1 construct: called dimeric; also called hPD-L1-mFc
# Protocol: (§1) The ability of monoclonal anti-PD-L1 antibodies to block human PD-L1 from binding to its binding partners, the human PD-1 and the human B7-1 receptors, was measured using two competition sandwich ELISA formats.
# (§2) A dimeric human PD-1 protein comprised of a portion of the extracellular domain (amino acids 25-170 of accession number NP_005009.2 with a C93S change) that was expressed with a C-terminal hFc tag (hPD-1-hFc; SEQ ID: 350) and a dimeric human B7-1 protein comprised of a portion of the extracellular domain expressed with C-terminal hFc tag and hexahistidine tags (hB7-1-hFc-6His; R&D Systems, #140-B1) were separately coated at 2 μg/mL on a 96-well microtiter plate in a PBS buffer overnight at 4° C. […] These antibody-protein complexes were then incubated for 1 hour at room temperature (RT). […] The complexes were allowed to bind to the coated plates for 1 hour at RT. […] Samples were developed with a TMB solution (BD Biosciences, #51-2606KC and #51-2607KC) to produce a colorimetric reaction and neutralized with 1M sulfuric acid before measuring absorbance at 450 nm on a Victor X5 plate reader. Data analysis used a sigmoidal dose-response model within Prism™ software.
# [2] = target: T2, full length human PD-L1 (amino acids 1 to 290 of NP_054862.1) on transfected cells (human, UniProt Q9NZQ7 19-290); test: FACS, 100 nM antibody, HEK293/hPD-L1 cells
# T2 construct: also called HEK293/hPD-L1; Raji/hPD-L1
# Protocol: (§3) The binding of anti-PD-L1 antibodies to a human embryonic kidney cell line (HEK293; ATCC, #CRL-1573) stably transfected with full length human PD-L1 (amino acids 1 to 290 of accession number NP_054862.1) (HEK293/hPD-L1) was determined by FACS.
# (§4) For the assay, adherent cells were detached using enzyme-free dissociation buffer and blocked with complete medium. Cells were centrifuged and resuspended at a concentration of 2.8×10\hat{ }6 cells/mL in cold PBS containing 2% FBS. […] Cells were washed with D-PBS containing 2% FBS to remove unbound secondary detection reagents and fluorescence measurements were acquired using a HyperCyte (IntelliCyt, Inc.) flow cytometer. Data was analyzed using HyperCyte software.
# [3] = target: T2, full length human PD-L1 (amino acids 1 …); test: FACS, 100 nM antibody
# Protocol: as §3, §4
# [4] = target: T1, recombinant human PD-L1 (amino acids …); test: competition ELISA: 8 nM hPD-L1-mFc binding to coated hB7-1-hFc-6His
# Protocol: as §1, §2
# [5] = target: T3, recombinant human PD-L1 (amino acids 19-239 of NP_054862.1) expressed with a C-terminal human IgG1 Fc tag (human); test: SPR (Biacore 3000): 100 nM hPD-L1-hFc + 500 nM mAb on captured hPD-1-mFc, 25C
# T3 construct: also called hPD-L1-hFc
# Protocol: Next, inhibition studies for anti-PD-L1 monoclonal antibodies expressed with human Fc were performed on Biacore 3000 instrument. […] The entire experiment was performed at 25° C. in HBST running buffer (0.01 M HEPES pH7.4, 0.15M NaCl, 3 mM EDTA, 0.05% v/v Surfactant P20). The real-time binding responses were monitored during the entire course of the experiment and the binding response at the end of every step was recorded.
# [6] = target: T2, full length human PD-L1 (amino acids 1 …); test: cell-based or functional assay
# [7] = target: T4, recombinant cynomolgus monkey PD-L1 expressed with a C-terminal mouse IgG2a Fc tag (cynomolgus monkey); test: SPR (Biacore), mAb captured, 37C
# T4 construct: also called MfPD-L1-mFc; monkey PD-L1-mFc
# T4 sequence (chain, as listed by the source limits assumed): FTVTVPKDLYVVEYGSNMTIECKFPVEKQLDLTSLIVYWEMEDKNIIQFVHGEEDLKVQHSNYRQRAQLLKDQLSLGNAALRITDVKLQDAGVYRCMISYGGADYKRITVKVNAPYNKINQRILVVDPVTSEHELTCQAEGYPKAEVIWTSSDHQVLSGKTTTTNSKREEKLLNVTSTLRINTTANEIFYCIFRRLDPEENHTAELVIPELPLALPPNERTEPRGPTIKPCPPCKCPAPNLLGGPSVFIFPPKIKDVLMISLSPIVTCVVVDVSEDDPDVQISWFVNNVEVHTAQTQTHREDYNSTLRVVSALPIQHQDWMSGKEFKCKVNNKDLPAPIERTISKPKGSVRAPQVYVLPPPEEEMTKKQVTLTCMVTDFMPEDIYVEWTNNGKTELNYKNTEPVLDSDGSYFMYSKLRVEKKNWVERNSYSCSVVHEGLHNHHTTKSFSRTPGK
# T3 sequence (chain, as listed by the source limits assumed): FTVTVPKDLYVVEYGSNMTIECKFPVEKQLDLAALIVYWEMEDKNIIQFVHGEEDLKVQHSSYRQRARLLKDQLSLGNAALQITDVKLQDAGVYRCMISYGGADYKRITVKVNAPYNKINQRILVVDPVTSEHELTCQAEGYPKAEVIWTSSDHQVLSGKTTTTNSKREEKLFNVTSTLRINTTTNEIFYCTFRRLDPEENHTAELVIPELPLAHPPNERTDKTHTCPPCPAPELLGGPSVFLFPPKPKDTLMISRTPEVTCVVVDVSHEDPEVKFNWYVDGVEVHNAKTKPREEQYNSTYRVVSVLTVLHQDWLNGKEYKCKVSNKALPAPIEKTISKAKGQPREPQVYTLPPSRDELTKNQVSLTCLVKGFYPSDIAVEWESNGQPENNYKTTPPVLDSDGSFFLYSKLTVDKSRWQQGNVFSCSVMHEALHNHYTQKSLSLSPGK
# T2 sequence (Q9NZQ7 19-290 limits assumed): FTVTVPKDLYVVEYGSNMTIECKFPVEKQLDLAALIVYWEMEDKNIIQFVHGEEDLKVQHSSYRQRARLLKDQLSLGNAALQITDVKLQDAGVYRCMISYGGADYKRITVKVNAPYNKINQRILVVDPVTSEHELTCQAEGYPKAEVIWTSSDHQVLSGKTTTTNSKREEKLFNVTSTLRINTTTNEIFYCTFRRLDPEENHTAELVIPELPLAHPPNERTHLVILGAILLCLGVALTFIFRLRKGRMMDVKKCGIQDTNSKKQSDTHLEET
# T1 sequence (chain, as listed by the source limits assumed): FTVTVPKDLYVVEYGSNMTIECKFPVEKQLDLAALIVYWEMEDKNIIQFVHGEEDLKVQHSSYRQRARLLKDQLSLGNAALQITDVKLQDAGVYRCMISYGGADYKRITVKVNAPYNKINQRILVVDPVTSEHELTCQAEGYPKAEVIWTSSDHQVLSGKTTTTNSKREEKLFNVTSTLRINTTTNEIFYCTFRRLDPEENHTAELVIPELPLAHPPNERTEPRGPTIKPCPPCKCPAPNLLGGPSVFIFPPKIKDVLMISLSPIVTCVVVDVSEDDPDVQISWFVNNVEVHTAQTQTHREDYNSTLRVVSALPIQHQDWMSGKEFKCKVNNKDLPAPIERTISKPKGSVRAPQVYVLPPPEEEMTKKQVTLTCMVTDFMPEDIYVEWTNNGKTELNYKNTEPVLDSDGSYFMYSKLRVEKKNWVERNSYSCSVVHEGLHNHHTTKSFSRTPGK
binder,measurement,setting,value
"H1H9336P (antibody, V domains shown, human IgG1 Fc (H1H prefix)) VH: EVQLVESGGGLVQPGRSLRLSCAASGFTFDDFAMHWVRQAPGKGLEWVSGISWTGGNMDYANSVKGRFTISREDAKNSLYLQMNSLRAADTALYYCVKDIRGIVATGGAFDIWGRGTMVTVSS VL: DIQMTQSPSSLSASVGDRVTISCRASQTISTYLNWFQQKPGKAPKLLIYVVSSLQSGVPSRFSGSGSGTDFTLTISSLQPEDFATYYCQQSYSTPFTFGPGTKVDIK",% maximum blocking,[1],100%
same,IC50,[1],< 0.25 nM
same,MFI,[2],379000 MFI
same,Ratio of HEK293/hPD-L1 to HEK293 parental cells,[3],168
same,% maximum blocking,[4],99%
same,IC50,[4],4.4 nM
same,% Blocking,[5],84%
same,Concentration [M] of Antibody at 125% activation,[6],9.81e-11 M
same,Emax mean [%] @ 100 nM,[6],163%
same,Kd,[7],0.0247 nM
same,koff,[7],4.6e-05 s⁻¹
same,kon,[7],1.86e+06 M⁻¹ s⁻¹
same,t1/2,[7],251 min
"H1H9387P2 (antibody, V domains shown, human IgG1 Fc (H1H prefix)) VH: QVQLVQSGAEVKKPGSSVKVSCKASGGTFNTYVLSWVRQAPGQGLEWMGEIIPILGAANYAQNFQGRVTFTTDESTNTAYMDLSSLRSEDTAVYYCARDRTSGGFDPWGQGTLVTVSS VL: not shown",% maximum blocking,[1],100%
same,IC50,[1],< 0.25 nM
same,MFI,[2],324000 MFI
same,Ratio of HEK293/hPD-L1 to HEK293 parental cells,[3],263
same,% maximum blocking,[4],100%
same,IC50,[4],< 4 nM
same,% Blocking,[5],91%
same,Concentration [M] of Antibody at 125% activation,[6],1.86e-11 M
same,Emax mean [%] @ 100 nM,[6],141%
same,Kd,[7],0.139 nM and 0.161 nM
same,koff,[7],0.000474 s⁻¹ and 0.000465 s⁻¹
same,kon,[7],3.41e+06 M⁻¹ s⁻¹ and 2.9e+06 M⁻¹ s⁻¹
same,t1/2,[7],24 min and 25 min
"H1H9396P2 (antibody, V domains shown, human IgG1 Fc (H1H prefix)) VH: QVQLVQSGAEVEKPGASVKVSCKASGYIFTHYGISWVRQAPGQGLEWVGWISPYNGYTDYAQKLQGRVTLTTDTSTTTAYMELRNLRSDDTAMYYCSRGRGPYWSFDLWGRGTLVTVSS VL: not shown",% maximum blocking,[1],59%
same,IC50,[1],< 0.25 nM
same,MFI,[2],228000 MFI
same,Ratio of HEK293/hPD-L1 to HEK293 parental cells,[3],97
same,% maximum blocking,[4],8%
same,% Blocking,[5],-193%
same,Emax mean [%] @ 100 nM,[6],103%
same,Kd,[7],0.319 nM
same,koff,[7],0.000502 s⁻¹
same,kon,[7],1.57e+06 M⁻¹ s⁻¹
same,t1/2,[7],23 min
"H1H9345P2 (antibody, V domains shown, human IgG1 Fc (H1H prefix)) VH: EVQLVESGGGLVQPGGSLRLSCAASGFTISTNYMNWVRQAPGKGLEWVAVIYSSGSTYYIDSVKGRFTISRLTSKNTVYLQMSSLNSEDTAVYYCARGIRGFDIWGQGTMVTVSS VL: not shown",% maximum blocking,[1],26%
same,IC50,[1],< 0.25 nM
same,MFI,[2],228000 MFI
same,Ratio of HEK293/hPD-L1 to HEK293 parental cells,[3],121
same,% maximum blocking,[4],-34%
same,% Blocking,[5],-422%
same,Emax mean [%] @ 100 nM,[6],89.2%
same,Kd,[7],0.339 nM
same,koff,[7],0.000292 s⁻¹
same,kon,[7],861000 M⁻¹ s⁻¹
same,t1/2,[7],40 min
"H1H9382P2 (antibody, V domains shown, human IgG1 Fc (H1H prefix)) VH: EVQLVESGGGLVQPGGSLRLSCAASGFTVGTNFMNWVRQAPGKGLEWVSAIYSGGTANYADSVKGRFTISRDTSRNTLYLQMNSLRTEDTAVYYCARGGGMDVWGQGTTVTVSS VL: not shown",% maximum blocking,[1],39%
same,IC50,[1],< 0.25 nM
same,MFI,[2],206000 MFI
same,Ratio of HEK293/hPD-L1 to HEK293 parental cells,[3],140
same,% maximum blocking,[4],-30%
same,% Blocking,[5],-448%
same,Emax mean [%] @ 100 nM,[6],86.5%
same,Kd,[7],0.825 nM
same,koff,[7],0.000235 s⁻¹
same,kon,[7],284000 M⁻¹ s⁻¹
same,t1/2,[7],49 min
"H1H9354P2 (antibody, V domains shown, human IgG1 Fc (H1H prefix)) VH: EVQLVESGGGLVQPGGSLRLSCEASGFTVGVNHMNWVRQAPGKGLEWVSVIFSSGRTFYGDYVKGRLTIFRQTSQNTVYLQMNSLRSEDTAIYYCARGIGGLDIWGRGTMVTVSS VL: not shown",% maximum blocking,[1],34%
same,IC50,[1],0.53 nM
same,MFI,[2],276000 MFI
same,Ratio of HEK293/hPD-L1 to HEK293 parental cells,[3],125
same,% maximum blocking,[4],-13%
same,% Blocking,[5],-428%
same,Emax mean [%] @ 100 nM,[6],89.9%
same,Kd,[7],0.746 nM
same,koff,[7],0.000203 s⁻¹
same,kon,[7],272000 M⁻¹ s⁻¹
same,t1/2,[7],57 min
